This is an account of results in PMC8041466.

Experiment [1] concerns the target Rituximab (humanized anti-hCD20 IgG1) (human). Kind of experiment: flow cytometry on cells; same set-up; pairs of the CD4-tailed vFcγR on the cells with Rtx. In general terms: In flow cytometry, cells or beads pass a laser one at a time.
Experiment [2] concerns the target Cytotect (HCMV-IgG hyperimmunoglobulin preparation, human plasma pool, polyclonal IgG) (human). Kind of experiment: flow cytometry on cells; same set-up; pairs of the vFcγR on infected cells with Cytotect IgG.

Chain of Rituximab (humanized anti-hCD20 IgG1) (human) (heavy, as listed by the source, chain 1 of 2): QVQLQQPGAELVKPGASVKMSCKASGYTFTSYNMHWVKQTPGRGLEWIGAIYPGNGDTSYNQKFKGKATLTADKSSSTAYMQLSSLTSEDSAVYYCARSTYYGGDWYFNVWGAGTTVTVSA
Chain of Rituximab (humanized anti-hCD20 IgG1) (human) (light, as listed by the source, chain 2 of 2): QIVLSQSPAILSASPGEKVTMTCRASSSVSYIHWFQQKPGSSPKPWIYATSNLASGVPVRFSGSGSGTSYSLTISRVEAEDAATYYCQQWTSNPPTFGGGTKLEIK

Turning to “gp68-CD4 (gp68 with the transmembrane and cytosolic domains of human CD4)”, in experiment [1], the percent reduction of FcγRIII binding was 60%.
“gp68 natively expressed on HCMV AD169/pBAC2 mutant-infected MRC-5 cells (from UniProt P16739 24-345) (natural protein)” had a percent reduction of FcγRIII binding in experiment [2] of 60%.
